# Source: patent US20160362460A1 (Pieris, published 2016)
# Where a chain is given by its changes, count along the chain named.
# B1: lipocalin mutein SEQ ID NO: 94 (designed binder)
# chain: QDSTSDLIPAPPLSKVPLQQNFQDNQFQGKWYVVGLAGNRILRQDQHPMPMYATIYELKEDKSYQVTSVISSHKKCLYPIATFVPGSQPGEFTLGNIKSYGDKVSYLVRVVSTNYNQHAMVFFKYADRNFESFSITLYGRTKELTSELKENFIRFSKSLGLPENHIVFPVPIDQCIDG
# B2: lipocalin mutein SEQ ID NO: 62 (designed binder)
# chain: QDSTSDLIPAPPLSKVPLQQNFQDNQFQGKWYVVGLAGNRILRDDQHPMPMYATIYELKGDKSYNVTSVISSHKKCLYPIATFVPGSQPGEFTLGNIKSYGDKWSYLVRVVSTDYNQYAVVFFKHADSNYESFSITIYGRTKELASELKENFIRFSKSLGLPENHIVFPVPIDQCIDG
# B3: lipocalin mutein SEQ ID NO: 61 (designed binder)
# chain: B2 chain with D44L, K98R, W104T, S128T
# B4: CTLA-4 specific lipocalin mutein (SEQ ID NO: 4) (designed binder)
# chain: B2 chain with Q28H
# notes: hNGAL (lipocalin 2) mutein
# B5: lipocalin mutein SEQ ID NO: 65 (designed binder)
# chain: QDSTSDLIPAPPLSKVPLQQNFQDNQFQGKWYVVGLAGNRILRDDQHPMPMYATIYELKEDKSYQVTSVISSHKKCLYPIATFVPGSQPGEFTLGNIKSYGDKWSYLVRVVSTNYNQHAMVFFKHADSNYESFSITLYGRTKELTSELKENFIRFSKSLGLPENHIVFPVPIDQCIDGSAWSHPQFEK
# B6: lipocalin mutein SEQ ID NO: 66 (designed binder)
# chain: B5 chain with D44L, K98R, W104T, S128T
# Molecular target: T1, human CTLA-4 on transfected CHO-K1 cells (human, UniProt P16410 36-223)
# T1 construct: whole, on cells; also called CHO: CTLA-4; human CTLA-4 expressing CHO cells
# Assay: FACS competition on human CTLA-4-transfected CHO cells; blocked ligand 20 nM biotinylated human B7.1, streptavidin-phycoerythrin
# T1 sequence (P16410 36-223): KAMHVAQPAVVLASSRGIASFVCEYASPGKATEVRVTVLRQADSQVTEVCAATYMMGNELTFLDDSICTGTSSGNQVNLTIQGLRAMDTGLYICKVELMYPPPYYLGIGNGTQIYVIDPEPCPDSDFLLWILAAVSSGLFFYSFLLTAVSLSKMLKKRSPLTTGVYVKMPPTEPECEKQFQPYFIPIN
row,IC50 (read off the curve) [nM],Binder
1,10 to 20,B1

# Molecular target: T2, Human CTLA-4-Fc (Chimerigen, CHI-HF-210A4-M001) (human, UniProt P16410 37-162)
# T2 construct: Bought protein; also called hCTLA-4; not shown: Fc part of the bought fusion
# Assay: SPR (Biacore T200), human CTLA-4-Fc captured by anti-human IgG-Fc, mutein as analyte, 1:1 fit
# T2 sequence (P16410 37-162 limits assumed, change not shown): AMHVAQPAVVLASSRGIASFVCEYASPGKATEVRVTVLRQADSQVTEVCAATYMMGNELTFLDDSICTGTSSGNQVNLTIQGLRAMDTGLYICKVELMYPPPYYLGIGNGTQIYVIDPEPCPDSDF
Kd [nM],koff [s⁻¹],kon [M⁻¹ s⁻¹],Binder
0.36,0.00027,750000,B2
1.8,0.00061,340000,B1
0.94,0.00072,770000,B3
0.35,0.00022,640000,B4
0.62,0.00044,710000,B5
1.8,0.0013,750000,B6

# Molecular target: T1, human CTLA-4 on transfected CHO-K1 cells
# Assay: FACS competition: inhibition of 20 nM B7.1 Fc-bio binding to human CTLA-4-transfected CHO cells
row,IC50 [nM],Binder
1,23,B4

# Molecular target: T1, human CTLA-4 on transfected CHO-K1 cells
# Assay: FACS competition on human CTLA-4-transfected CHO cells; blocked ligand 20 nM biotinylated human B7.1 Fc, detected with streptavidin-PE
row,IC50 (read off the curve) [nM],Binder
1,~20,B4

# Molecular target: T1, human CTLA-4 on transfected CHO-K1 cells
# Assay: FACS competition: inhibition of 20 nM biotinylated CD80/B7.1 binding to CTLA-4-transfected CHO-K1 cells
row,EC50 [nM],Binder
1,6,B2
2,13.4,B1
3,9.3,B3
4,7.6,B4
5,7.8,B5
6,7.4,B6
